Here are results for 1 molecule from article PMC2223497 (2026).

What all share (assay): Scatchard binding assay
Assay [1] deals with T1, G-CSF receptor (KK cells) (Homo sapiens, UniProt Q99062).
T1 chain: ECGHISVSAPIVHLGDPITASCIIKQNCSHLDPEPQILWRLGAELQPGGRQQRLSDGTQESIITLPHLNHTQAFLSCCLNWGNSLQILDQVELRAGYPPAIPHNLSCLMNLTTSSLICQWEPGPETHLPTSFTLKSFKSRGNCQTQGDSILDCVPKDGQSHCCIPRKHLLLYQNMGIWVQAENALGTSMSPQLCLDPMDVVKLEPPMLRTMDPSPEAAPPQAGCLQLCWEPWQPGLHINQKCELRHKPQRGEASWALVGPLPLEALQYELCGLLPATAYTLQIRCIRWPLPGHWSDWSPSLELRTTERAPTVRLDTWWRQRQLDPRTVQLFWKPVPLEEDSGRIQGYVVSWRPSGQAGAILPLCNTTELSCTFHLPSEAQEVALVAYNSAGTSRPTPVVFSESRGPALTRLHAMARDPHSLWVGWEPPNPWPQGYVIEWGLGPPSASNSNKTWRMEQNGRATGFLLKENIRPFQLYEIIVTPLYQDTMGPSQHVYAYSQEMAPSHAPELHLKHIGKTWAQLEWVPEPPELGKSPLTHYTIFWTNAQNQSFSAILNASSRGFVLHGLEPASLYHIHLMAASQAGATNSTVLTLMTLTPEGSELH

Assay [2] addresses T2, G-CSF receptor (NBT-2 cells) (Homo sapiens, UniProt Q99062).
T2 chain: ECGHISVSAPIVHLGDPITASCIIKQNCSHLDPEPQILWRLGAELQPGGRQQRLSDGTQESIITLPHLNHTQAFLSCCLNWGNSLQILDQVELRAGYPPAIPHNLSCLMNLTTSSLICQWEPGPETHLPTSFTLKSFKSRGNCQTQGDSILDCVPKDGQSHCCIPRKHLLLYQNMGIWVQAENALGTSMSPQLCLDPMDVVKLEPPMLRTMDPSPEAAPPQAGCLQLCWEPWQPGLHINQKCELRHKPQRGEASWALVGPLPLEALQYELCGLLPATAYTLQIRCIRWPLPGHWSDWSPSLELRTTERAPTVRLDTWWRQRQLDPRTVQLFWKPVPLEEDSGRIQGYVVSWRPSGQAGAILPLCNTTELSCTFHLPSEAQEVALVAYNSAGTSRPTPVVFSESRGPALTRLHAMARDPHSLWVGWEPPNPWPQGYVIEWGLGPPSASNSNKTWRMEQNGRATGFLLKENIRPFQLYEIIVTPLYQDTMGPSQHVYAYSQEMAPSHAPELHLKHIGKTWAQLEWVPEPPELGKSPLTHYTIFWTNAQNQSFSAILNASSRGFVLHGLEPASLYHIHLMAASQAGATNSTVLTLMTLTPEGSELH

The target of assay [3] is T3, G-CSF receptor (KU-1 cells) (Homo sapiens, UniProt Q99062).
T3 chain: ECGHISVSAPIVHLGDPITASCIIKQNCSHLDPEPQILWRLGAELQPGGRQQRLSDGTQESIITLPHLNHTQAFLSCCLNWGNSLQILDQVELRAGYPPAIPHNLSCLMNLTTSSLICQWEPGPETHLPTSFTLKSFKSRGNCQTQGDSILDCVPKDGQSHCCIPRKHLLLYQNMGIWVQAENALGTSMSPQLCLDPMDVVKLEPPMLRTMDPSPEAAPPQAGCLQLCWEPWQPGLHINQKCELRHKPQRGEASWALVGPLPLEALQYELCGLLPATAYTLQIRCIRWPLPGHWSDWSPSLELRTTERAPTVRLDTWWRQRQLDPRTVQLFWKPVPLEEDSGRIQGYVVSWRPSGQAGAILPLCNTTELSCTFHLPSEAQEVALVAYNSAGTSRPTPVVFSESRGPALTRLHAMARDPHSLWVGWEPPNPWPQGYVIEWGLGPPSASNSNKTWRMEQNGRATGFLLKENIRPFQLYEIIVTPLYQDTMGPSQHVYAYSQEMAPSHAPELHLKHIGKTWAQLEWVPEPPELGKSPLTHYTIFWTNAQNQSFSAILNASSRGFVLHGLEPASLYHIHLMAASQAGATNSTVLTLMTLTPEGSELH

B1: G-CSF (protein)
chain: TPLGPASSLPQSFLLKCLEQVRKIQGDGAALQEKLVSECATYKLCHPEELVLLGHSLGIPWAPLSSCPSQALQLAGCLSQLHSGLFLYQGLLQALEGISPELGPTLDTLQLDVADFATTIWQQMEELGMAPALQPTQGAMPAFASAFQRRAGGVLVASHLQSFLEVSYRVLRHLAQP
Take B1: the Kd in assay [1] came out at 0.103 nM; in assay [2], 0.34 nM; in assay [3], 0.49 nM.
